{
  "source": "paper PMC5750132",
  "key": {"[1]": {"molecular_target": "Truncated mouse TMEM16A (amino acids 1-903) (mouse)", "assay": "cryo-EM structure"}, "[2]": {"molecular_target": "Truncated mouse TMEM16A (amino acids 1-903) (mouse)", "assay": "cryo-EM structure", "remark": "listed apart in the source"}},
  "note": "Read-outs that look alike come from different tables or passages of the source.",
  "data": [
    {"substance": "Truncated mouse TMEM16A (amino acids 1-903) (domain or fragment)", "values": [
      {"measurement": "stoichiometry N", "setting": "[1]", "result": 2},
      {"measurement": "stoichiometry N", "setting": "[2]", "result": 2}
    ]}
  ]
}
